Experiment [1] deals with T1, human-CD40-monomer protein (human, UniProt P25942 21-193, limits assumed).
T1 construct: Soluble monomer generated in house, used as SPR analyte; also called hCD40; hCD40-monomer
Nature of the experiment: SPR, Ab captured on protein A, hCD40 monomer 500 and 50 nM, 1:1 fit; supernatant. How it is done: (§1) Titer analysis was performed using Biolayer Interferometry (BLI) on an Octet RED instrument (Fortebio) by capturing antibodies from supernatant using protein A sensor tips and measuring capture response with respect to a standard curve obtained using a control antibody sample. SPR data were obtained by capturing antibodies on a protein A surface and testing the binding of 500 nM and 50 nM injections of human-CD40 analyte, using a BIAcore™ T200 instrument (GE Healthcare). The kinetic data for the two concentrations of hCD40-monomer were fit to a 1:1 Langmuir model, to yield estimates of the kinetic and affinity values for these interactions, and for comparison of the different molecules.
(Surface plasmon resonance follows binding to a sensor surface in real time, without labels.)

Experiment [2] addresses T1, human-CD40-monomer protein. Nature of the experiment: SPR, Ab captured on protein A, 1 uM hCD40 monomer, single concentration, apparent value. How it is done:
The CD40 kinetic and affinity data for human-CD40 monomer binding to mouse anti-human CD40 antibodies captured on a protein A sensor chip surface were assessed by SPR. The data shown are for a single concentration of CD40 analyte (1 μM) and are therefore reported as apparent (app) values.

In experiment [3] the target is T1, human-CD40-monomer protein. Nature of the experiment: SPR, Ab captured on protein A, hCD40 monomer 500 and 50 nM, 1:1 fit; purified. As for the experimental part: as §1

T1 sequence (P25942 21-193 limits assumed): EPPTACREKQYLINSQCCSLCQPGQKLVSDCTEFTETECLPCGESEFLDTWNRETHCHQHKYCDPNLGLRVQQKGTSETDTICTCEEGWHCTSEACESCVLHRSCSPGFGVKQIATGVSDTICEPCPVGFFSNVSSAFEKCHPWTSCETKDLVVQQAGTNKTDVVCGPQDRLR

B1: Y12XX-hz18 (antibody, human IgG1, kappa, V domains shown)
VH: QVQLVQSGAEVKKPGSSVKVSCKASGYAFTSYWMHWVRQAPGQGLEWMGYINPTTGYSAYNQKFKDKATLTADKSTSTAYMELSSLRSEDTAVYYCARWDPRPFAYWGQGTLVTVSS
VL: DIQMTQSPSFLSASVGDRVTITCKASQDVSTAVAWYQQKPGKAPKLLIYSASYRYTGVPSRFSGSGSGTDFTLTISSLQPEDFATYYCQQHYSTPWTFGGGTKVEIKR
notes: Humanized, IgG1-P238K; supernatant sample
By koff is commonly meant a measure of how fast the partners let go of each other. In general, kon refers to the second-order rate constant of association. As to B1, in experiment [1], the Kd was 7.1 nM, the koff came out at 0.0024 s⁻¹ and the association rate constant (kon) came out at 350000 M⁻¹ s⁻¹.

B2: Y12XX-hz22 (antibody, human IgG1, kappa, V domains shown)
VH: QVQLVQSGAEVKKPGSSVKVSCKASGYAFTSYWMHWVRQAPGQGLEWMGYINPTTGYSAYNQKFKDKATLTADKSTSTAYMELSSLRSEDTAVYYCARWDARPFAYWGQGTLVTVSS
VL: DIQMTQSPSFLSASVGDRVTITCKASQDVSTAVAWYQQKPGKAPKLLIYSASYRYTGVPSRFSGSGSGTDFTLTISSLQPEDFATYYCQQHYSTPWTFGGGTKVEIKR
notes: as for B1
In experiment [1], B2 gave a Kd of 210 nM, a koff of 0.079 s⁻¹ and a kon of 370000 M⁻¹ s⁻¹.

B3: Y12XX-hz20 (antibody, human IgG1, kappa, V domains shown)
VH: QVQLVQSGAEVKKPGSSVKVSCKASGYAFTSYWMHWVRQRPGQGLEWIGYINPTTGYSAYNQKFKDKATLTADKSTSTAYMELNSLRSEDTAVYYCARWDPRPFAYWGQGTLVTVSS
VL: DIQMTQSPSFLSASVGDRVTITCKASQDVSTAVAWYQQKPGKAPKLLIYSASYRYTGVPSRFSGSGSGTDFTLTISSLQPEDFATYYCQQHYSTPWTFGGGTKVEIKR
notes: as for B1
On to B3, for which, in experiment [1], the Kd amounted to 8.2 nM, the koff was 0.0025 s⁻¹ and the kon was determined as 310000 M⁻¹ s⁻¹.

B4: Y12XX-hz6 (antibody, human IgG1, kappa, V domains shown)
VH: QVQLVQSGAEVKKPGSSVKVSCKASGYAFTSYWMHWVRQRPGQGLEWIGYINPTTGYSAYNQKFKDKATLTADKSTSTAYMELNSLRSEDTAVYYCARWDPRPFAYWGQGTLVTVSS
VL: DIQMTQSPSSLSASVGDRVTITCKASQDVSTAVAWYQQKPGKAPKLLIYSASYRYTGVPSRFSGSGSGTDFTFTISSLQPEDIATYYCQQHYSTPWTFGGGTKVEIKR
notes: as for B1
Take B4: in experiment [1], the Kd was determined as 6.4 nM, the koff was found to be 0.0024 s⁻¹ and the kon is 380000 M⁻¹ s⁻¹.

B5: Y12XX-hz34 (antibody, human IgG1, kappa, V domains shown)
VH: QVQLVQSGAEVKKPGSSVKVSCKASGYAFTSYWMHWVRQRPGQGLEWIGYINPTTGYSAYNQKFKDKATLTADKSTSTAYMELNSLRSEDTAVYYCARWDPRPFAYWGQGTLVTVSS
VL: EIVMTQSPATLSVSPGERATLSCKASQDVSTAVAWYQQKPGQAPRLLIYSASYRYTGIPARFSGSGSGTEFTLTISSLQSEDFAVYYCQQHYSTPWTFGGGTKVEIKR
notes: as for B1
With B5, in experiment [1], the Kd is 7.6 nM, the koff was 0.0028 s⁻¹ and the kon stood at 370000 M⁻¹ s⁻¹.

B6: Y12XX-hz19 (antibody, human IgG1, kappa, V domains shown)
VH: QVQLVQSGAEVKKPGSSVKVSCKASGYAFTSYWMHWVRQRPGQGLEWMGYINPTTGYSAYNQKFKDKATLTADKSTSTAYMELSSLRSEDTAVYYCARWDPRPFAYWGQGTLVTVSS
VL: DIQMTQSPSFLSASVGDRVTITCKASQDVSTAVAWYQQKPGKAPKLLIYSASYRYTGVPSRFSGSGSGTDFTLTISSLQPEDFATYYCQQHYSTPWTFGGGTKVEIKR
notes: as for B1
For B6, in experiment [1], the Kd was determined as 6.2 nM, the koff was found to be 0.0023 s⁻¹ and the kon was 380000 M⁻¹ s⁻¹.

B7: Y1258 (antibody, human IgG1, kappa)
heavy: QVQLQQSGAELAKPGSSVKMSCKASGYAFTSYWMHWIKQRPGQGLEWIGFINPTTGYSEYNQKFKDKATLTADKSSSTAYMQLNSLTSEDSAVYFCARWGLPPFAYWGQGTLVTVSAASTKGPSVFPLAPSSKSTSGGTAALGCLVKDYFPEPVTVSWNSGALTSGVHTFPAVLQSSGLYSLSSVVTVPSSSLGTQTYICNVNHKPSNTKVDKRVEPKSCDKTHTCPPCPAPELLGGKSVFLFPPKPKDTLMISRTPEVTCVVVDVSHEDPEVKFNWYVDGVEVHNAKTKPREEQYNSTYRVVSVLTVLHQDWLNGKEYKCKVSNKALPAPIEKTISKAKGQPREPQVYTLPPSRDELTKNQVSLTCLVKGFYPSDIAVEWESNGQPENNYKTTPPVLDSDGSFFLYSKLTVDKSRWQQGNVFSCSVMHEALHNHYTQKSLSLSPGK
light: DIVMTQSHKFMSTSVGDRVSITCKASQDVSTAVAWYQQKPGQSPKLLIYSASYRYTGVPDRFTGSGSGTDFTFTISSVQAEDLAVYYCQQHYSTPWTFGGGTKLEIKRTVAAPSVFIFPPSDEQLKSGTASVVCLLNNFYPREAKVQWKVDNALQSGNSQESVTEQDSKDSTYSLSSTLTLSKADYEKHKVYACEVTHQGLSSPVTKSFNRGEC
notes: Chimeric, mouse variable and human constant regions; supernatant sample; also called chimeric Y1258
On to B7, for which, in experiment [1], the Kd worked out at 0.067 nM, the koff came out at 3.8e-06 s⁻¹ and the kon worked out at 56000 M⁻¹ s⁻¹.

B8: Y1262 (antibody, human IgG1, kappa)
heavy: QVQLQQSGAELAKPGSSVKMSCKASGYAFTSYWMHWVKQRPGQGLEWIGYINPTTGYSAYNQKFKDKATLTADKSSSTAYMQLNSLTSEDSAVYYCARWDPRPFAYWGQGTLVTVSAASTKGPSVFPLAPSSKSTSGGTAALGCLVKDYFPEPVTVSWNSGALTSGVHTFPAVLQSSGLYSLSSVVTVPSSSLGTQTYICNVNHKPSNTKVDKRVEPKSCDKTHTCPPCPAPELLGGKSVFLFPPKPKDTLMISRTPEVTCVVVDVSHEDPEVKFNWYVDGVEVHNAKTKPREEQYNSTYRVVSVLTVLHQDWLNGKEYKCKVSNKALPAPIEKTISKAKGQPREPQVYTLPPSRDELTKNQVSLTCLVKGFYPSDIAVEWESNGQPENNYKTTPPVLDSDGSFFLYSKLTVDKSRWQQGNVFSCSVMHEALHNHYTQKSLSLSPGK
light: DIVMTQSHKFMSTSVGDRVSITCKASQDVSTAVAWYQQKPGQSPKLLIYSASYRYTGVPDRFTGSGYGTDFTFTISSVQAEDLAVYYCQQHYSTPWTFGGGTKLEIKRTVAAPSVFIFPPSDEQLKSGTASVVCLLNNFYPREAKVQWKVDNALQSGNSQESVTEQDSKDSTYSLSSTLTLSKADYEKHKVYACEVTHQGLSSPVTKSFNRGEC
notes: Chimeric, mouse variable and human constant regions; supernatant sample; also called chimeric Y1262; Chim
In experiment [1], B8 displayed a Kd of 8 nM, a koff of 0.0028 s⁻¹ and a kon of 350000 M⁻¹ s⁻¹.

B9: ADX_Y1072.ZZ0-1 (antibody, V domains shown)
VH: QVQFQQSGAELARPGASVKLSCKASGYTFTSYWMQWVKQRPGQGLEWIGTIYPGDGDSRYNQKFKGKALLTADKSSSIAYMQLNSLASEDSAVYFCARFSLYDGYPYYFDYWGQGTTLTVSS
VL: DVVMTQTPLSLPVSLGDQASISCRSSQSLVHRNGNTYLHWYLQKPGQSPKLLIYRVSNRFSGVPDRFSGSGSGTDFTLKISRVEAEDLGIYFCSQSTHFPYTFGGGTKLEIK
notes: Mouse anti-human-CD40 antibody
As to B9, in experiment [2], the Kd is 120 nM, the koff came to 0.0092 s⁻¹ and the kon was 77000 M⁻¹ s⁻¹.

B10: ADX_Y1258.ZZ0-1 (antibody, V domains shown)
VH: QVQLQQSGAELAKPGSSVKMSCKASGYAFTSYWMHWIKQRPGQGLEWIGFINPTTGYSEYNQKFKDKATLTADKSSSTAYMQLNSLTSEDSAVYFCARWGLPPFAYWGQGTLVTVSA
VL: DIVMTQSHKFMSTSVGDRVSITCKASQDVSTAVAWYQQKPGQSPKLLIYSASYRYTGVPDRFTGSGSGTDFTFTISSVQAEDLAVYYCQQHYSTPWTFGGGTKLEIK
notes: as for B9
With B10, in experiment [2], the Kd turned out to be 7.9 nM, the off-rate (koff) came out at 0.00013 s⁻¹ and the kon stood at 17000 M⁻¹ s⁻¹.

B11: ADX_Y1238.ZZ0-1 (antibody, V domains shown)
VH: QVQLQQSGAELVRPGTSVKVSCKASGYAFTNYLIEWVKQRPGQGLEWIGVINPGSGGTNYNEKFKGKATLTADKSSSTAYMQLSSLTSDDSAVYFCARSQLGRRFDYWGQGTTLTVSS
VL: DIVMTQSHKFMSTSVGDRVSITCKASQDVRTGVAWYQQKPGQSPKLLIYSASYRNTGVPDRFTGSRSGTDFTFTISSVQAEDLAVYYCQQHYSPPYTFGGGTKLEIK
notes: as for B9
For the molecule B11, in experiment [2], the Kd was 2.2 nM, the koff came to 0.00012 s⁻¹ and the kon was 55000 M⁻¹ s⁻¹.

B12: ADX_Y1264.ZZ0-1 (antibody, V domains shown)
VH: EVQLQQSGTVLARPGASVKMSCRASGYSFSSYWMHWVKQRPGQGLEWIGSINPGNSDAFYNQQFKGKAKLTAVTSASTAYMELSSLTNEDSAVYYCTRWGLPPFAYWGQGTLVTVSA
VL: DIVMTQSHKFMSTSVGDRVSITCKASQDVSTAVAWYQQKPGQSPKLLIYSASYRYTGVPDRFTGSGSGTDFTFTISSVQAEDLAVYYCHQHYSTPWTFGGGTKLEIK
notes: as for B9
With B12, in experiment [2], the Kd was found to be 17 nM, the koff was found to be 0.00023 s⁻¹ and the kon came out at 14000 M⁻¹ s⁻¹.

B13: Y1268-hIgG1f (antibody, V domains shown)
VH: QVQLQQPGAELVKPGASVRLSCKASGYAFTSYWMHWVKQRPGQGLEWIGQINPSNGRSQYNEKFKTMATLTVDKSSSTAYIQLSSLTSEDSAVYYCARWGLQPFAYWGQGTLVTVSA
VL: DIVMTQSHKFMSTSVGDRVSITCKASQDVSTAVAWYQQKPGQSPKLLIYSASYRYTGVPDRFTGSGSGTDFTFTISSVQAEDLAVYYCQQHYSTPWTFGGGTKLEIK
notes: Purified chimeric antibody with human wild-type IgG1f; also called purified chimeric Y1268; Chim-P
In experiment [3], B13 yielded a Kd of 3.2 nM, a koff of 0.0013 s⁻¹ and a kon of 400000 M⁻¹ s⁻¹.

B14: ADX_Y1267.ZZ0-1 (antibody, V domains shown)
VH: QVQLQQPGAELVKPGASVRLSCEASGYSFTSYWMHWVKQRPGQGLEWIGQINPSNGRTQYNEKFKSMATLTVDKSSSTAYIQLNSLTSEDSAVYYCARWGLQPFAYWGQGTLVTVSA
VL: DIVMTQSHKFMSTSVGDRVSITCKASQDVSTAVAWYQQKPGQSPKLLIYSASYRYTGVPDRFTGSGSGTDFTFTISSVQAEDLAVYYCLQHYTTPWTFGGGTKLEIK
notes: as for B9
Take B14: in experiment [2], the Kd was determined as 1.1 nM, the koff is 0.00041 s⁻¹ and the kon was determined as 370000 M⁻¹ s⁻¹.

B15: ADX_Y1262.ZZ0-1 (antibody, V domains shown)
VH: QVQLQQSGAELAKPGSSVKMSCKASGYAFTSYWMHWVKQRPGQGLEWIGYINPTTGYSAYNQKFKDKATLTADKSSSTAYMQLNSLTSEDSAVYYCARWDPRPFAYWGQGTLVTVSA
VL: DIVMTQSHKFMSTSVGDRVSITCKASQDVSTAVAWYQQKPGQSPKLLIYSASYRYTGVPDRFTGSGYGTDFTFTISSVQAEDLAVYYCQQHYSTPWTFGGGTKLEIK
notes: as for B9
As to B15, in experiment [2], the Kd was found to be 6.6 nM, the koff was 0.0025 s⁻¹ and the kon was found to be 370000 M⁻¹ s⁻¹.

B16: ADX_Y1268.ZZ0-1 (antibody, V domains shown)
VH: QVQLQQPGAELVKPGASVRLSCKASGYAFTSYWMHWVKQRPGQGLEWIGQINPSNGRSQYNEKFKTMATLTVDKSSSTAYIQLSSLTSEDSAVYYCARWGLQPFAYWGQGTLVTVSA
VL: DIVMTQSHKFMSTSVGDRVSITCKASQDVSTAVAWYQQKPGQSPKLLIYSASYRYTGVPDRFTGSGSGTDFTFTISSVQAEDLAVYYCQQHYSTPWTFGGGTKLEIK
notes: as for B9
In the case of B16, in experiment [2], the Kd is 1.4 nM, the koff stood at 0.00046 s⁻¹ and the kon was found to be 320000 M⁻¹ s⁻¹.

B17: ADX_Y1260.ZZ0-1 (antibody, V domains shown)
VH: QVQLQQSGAELTKPGASVKMSCKASGYSFTSYWMHWVKQRPGQGLEWIGSINPSTGYTEDNQKFKDKATLTADKSSTTAYMQLSSLTSEDSAVYYCARWGLPPFAYWGQGTLVTVSA
VL: DIVMTQSHKFMSTSVGDRVSITCKASQDVSTAVAWYQQKPGQSPKLLIYSASYRYTGVPDRFTGSGSGTDFTFTISSVQAEDLAVYYCQQHYSTPWTFGGGTKLEIK
notes: as for B9
Regarding B17, in experiment [2], the Kd came to 4 nM, the dissociation rate constant (koff) is 0.00021 s⁻¹ and the kon amounted to 52000 M⁻¹ s⁻¹.

Source of the values: patent publication US20240124597A1 (Bristol-Myers Squibb, published 2024).
